Assays:
Test in all cases: fluorescence anisotropy
[1] = biological target: T1, YTHDC2 YTH domain (Homo sapiens, UniProt Q9H6S0 1277-1430)
T1 sequence: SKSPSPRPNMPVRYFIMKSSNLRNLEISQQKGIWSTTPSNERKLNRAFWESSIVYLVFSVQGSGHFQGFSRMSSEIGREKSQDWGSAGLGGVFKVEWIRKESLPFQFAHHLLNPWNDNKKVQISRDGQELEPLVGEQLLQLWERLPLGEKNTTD

[2] = biological target: T2, YTHDC2 YTH domain W1360A (Homo sapiens, UniProt Q9H6S0 1277-1430, W1360A)
T2 sequence: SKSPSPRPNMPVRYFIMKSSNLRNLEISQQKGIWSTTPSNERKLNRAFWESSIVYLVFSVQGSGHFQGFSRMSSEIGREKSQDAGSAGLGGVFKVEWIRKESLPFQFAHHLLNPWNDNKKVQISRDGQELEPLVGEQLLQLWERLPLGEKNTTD

[3] = biological target: T3, YTHDC2 YTH domain W1310A (Homo sapiens, UniProt Q9H6S0 1277-1430, W1310A)
T3 sequence: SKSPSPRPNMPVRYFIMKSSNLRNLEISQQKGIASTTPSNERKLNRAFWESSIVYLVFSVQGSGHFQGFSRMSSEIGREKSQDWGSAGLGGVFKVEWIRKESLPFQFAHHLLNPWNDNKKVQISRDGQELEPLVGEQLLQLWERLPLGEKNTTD

B1: GGm6ACU 9-nt RNA (ssRNA)
RNA: CCGGACUGU
modifications: N6-methyladenosine at position 5
With B1 the Kd [1] was 3.2 ± 0.3 µM, the binding result [2] was “no binding” and the binding result [3] was “no binding”.

Source: PMC6140455
